From patent US20150011431A1

Target: CXCR1 (UniProt P25024)
Assay: cell-based or functional assay

Chain of IL-8 (soluble cytokine) (P10145 28-99 limits assumed): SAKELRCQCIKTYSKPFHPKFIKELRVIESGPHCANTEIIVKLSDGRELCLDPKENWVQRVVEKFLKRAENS
Chain of CXCR1 (P25024 whole entry): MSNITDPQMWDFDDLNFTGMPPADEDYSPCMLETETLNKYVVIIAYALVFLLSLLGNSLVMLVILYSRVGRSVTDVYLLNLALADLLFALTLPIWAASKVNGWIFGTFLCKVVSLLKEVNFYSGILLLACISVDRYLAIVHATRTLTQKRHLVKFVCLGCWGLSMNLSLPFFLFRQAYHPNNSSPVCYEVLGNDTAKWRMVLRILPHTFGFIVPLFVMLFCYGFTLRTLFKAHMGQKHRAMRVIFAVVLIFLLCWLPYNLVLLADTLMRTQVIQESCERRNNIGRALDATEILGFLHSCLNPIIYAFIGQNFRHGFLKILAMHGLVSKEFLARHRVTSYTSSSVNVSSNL

Which average RLU at 0.01 nM (beta-arrestin recruitment reporter, CXCR1-U2OS cells) does the source give for “IL-8 (soluble cytokine) (from UniProt P10145 28-99) (ligand)” here?
Its average RLU at 0.01 nM (beta-arrestin recruitment reporter, CXCR1-U2OS cells) is 440 RLU.

What about the average RLU at 0.08 nM (beta-arrestin recruitment reporter, CXCR1-U2OS cells) of the same substance?
The average RLU at 0.08 nM (beta-arrestin recruitment reporter, CXCR1-U2OS cells) was 504 RLU.

And the average RLU at 0.23 nM (beta-arrestin recruitment reporter, CXCR1-U2OS cells)?
Its average RLU at 0.23 nM (beta-arrestin recruitment reporter, CXCR1-U2OS cells) is 940 RLU.

And the average RLU at 0.69 nM (beta-arrestin recruitment reporter, CXCR1-U2OS cells)?
The average RLU at 0.69 nM (beta-arrestin recruitment reporter, CXCR1-U2OS cells) was 1940 RLU.

And the average RLU at 2.06 nM (beta-arrestin recruitment reporter, CXCR1-U2OS cells)?
The average RLU at 2.06 nM (beta-arrestin recruitment reporter, CXCR1-U2OS cells) was 4110 RLU.

And the average RLU at 6.17 nM (beta-arrestin recruitment reporter, CXCR1-U2OS cells)?
The average RLU at 6.17 nM (beta-arrestin recruitment reporter, CXCR1-U2OS cells) was 5870 RLU.

What about the average RLU at 18.52 nM (beta-arrestin recruitment reporter, CXCR1-U2OS cells) of the same substance?
Its average RLU at 18.52 nM (beta-arrestin recruitment reporter, CXCR1-U2OS cells) is 7300 RLU.

And the average RLU at 31.5 nM (beta-arrestin recruitment reporter, CXCR1-U2OS cells)?
The average RLU at 31.5 nM (beta-arrestin recruitment reporter, CXCR1-U2OS cells) was 55500 RLU.

And the average RLU at 55.56 nM (beta-arrestin recruitment reporter, CXCR1-U2OS cells)?
The average RLU at 55.56 nM (beta-arrestin recruitment reporter, CXCR1-U2OS cells) was 7360 RLU.

What about the average RLU at 166.67 nM (beta-arrestin recruitment reporter, CXCR1-U2OS cells) of the same substance?
The average RLU at 166.67 nM (beta-arrestin recruitment reporter, CXCR1-U2OS cells) was 6770 RLU.

What about the average RLU at 500.00 nM (beta-arrestin recruitment reporter, CXCR1-U2OS cells) of the same substance?
Its average RLU at 500.00 nM (beta-arrestin recruitment reporter, CXCR1-U2OS cells) is 5720 RLU.

What does the source list for “IgG VH4-4 CDR3 BsaI (lacking the IL-8 insert) (antibody)”?
average RLU at 0.001 nM IgG (beta-arrestin recruitment reporter, CXCR1-U2OS cells): 7500 RLU; average RLU at 0.004 nM IgG (beta-arrestin recruitment reporter, CXCR1-U2OS cells): 7390 RLU; average RLU at 0.013 nM IgG (beta-arrestin recruitment reporter, CXCR1-U2OS cells): 7050 RLU; average RLU at 0.040 nM IgG (beta-arrestin recruitment reporter, CXCR1-U2OS cells): 6970 RLU; average RLU at 0.120 nM IgG (beta-arrestin recruitment reporter, CXCR1-U2OS cells): 7330 RLU; average RLU at 0.359 nM IgG (beta-arrestin recruitment reporter, CXCR1-U2OS cells): 6690 RLU; average RLU at 1.076 nM IgG (beta-arrestin recruitment reporter, CXCR1-U2OS cells): 7180 RLU; average RLU at 3.228 nM IgG (beta-arrestin recruitment reporter, CXCR1-U2OS cells): 7030 RLU; average RLU at 9.685 nM IgG (beta-arrestin recruitment reporter, CXCR1-U2OS cells): 7170 RLU; average RLU at 29.056 nM IgG (beta-arrestin recruitment reporter, CXCR1-U2OS cells): 7100 RLU; average RLU at 87.167 nM IgG (beta-arrestin recruitment reporter, CXCR1-U2OS cells): 7140 RLU; average RLU at 261.500 nM IgG (beta-arrestin recruitment reporter, CXCR1-U2OS cells): 7540 RLU
